Data: US20250011391A1, “ULTRA LIGHT-SENSITIVE NEUROPSIN-BASED OPTOGENETIC TOOL FOR ACTIVATING G q-COUPLED SIGNALING AND/OR ACTIVATING CELLS” (GENANS BIOTECHNOLOGY CO., LTD, priority 2021, published 2025)
Entries after “also recorded” stand apart in the source; their conditions may differ. Numbered stars: 1 amine (or outer) side, 2 acyl side, 3 side chain; on linkers, the order of the positions; unused ones are H or OH. Bridge positions count the residues as written; N and C are the ends. Square brackets hold non-standard residues; d marks the D form. Peptide text beside a SMILES is read from it. X1 = CC(=O)NC(C(=O)OC(C(C)C)C(N[*:1])C(=O)[*:2])C(O)C(C)C; PhLac = O=C(O)[CH](O)Cc1ccccc1; NMeT = CN[CH](C(=O)O)[CH](C)O; NMeA = CN[CH](C)C(=O)O; NMeDha = C=C(NC)C(=O)O

How the values were obtained:
Gq proteins [1] = target: Gq proteins
Gq proteins [2] = target: Gq proteins; remark: listed apart in the source
[3] = system: Gq signaling in HEK 293T cells; experiment: Light-induced Ca2+ signal (Calbryte 630 AM dye) in opsin-expressing HEK 293T cells; type: cell-based; settings: for light-induced increase in Ca2+ signal: blue light 10 s, 100 μW/mm2, 488 nm, no exogenous retinal
Description: (§1) Whether heterologous expression of the Opn5 orthologs from chicken, turtles, humans and mice (which share 80-90% protein sequence identity) have the capacity to mediate blue light-induced Gq signaling activation within HEK 293T cells is tested (FIG. 1a and table 7). Blue light for stimulation and the red intracellular calcium indicator Calbryte™ 630 AM dye are used to monitor the relative Ca^2+ response (FIG. 1b).
b, Pseudocolor images of the Ca2+ signal before and after blue light stimulation (10 s; 100 μW/mm^2; 488 nm) in HEK 293T cells expressing Opn5 from three species (Gallus gallus, Homo sapiens, and Mus musculus). Scale bar, 10 μm.
Characterizing the light-activating properties of cOpn5 heterologously expressed in HEK 293T cells is performed. […] The effects of different light durations on cOpn5-expressing HEK 293T cells are tested. […] Therefore, the light sensitivity of cOpn5 is 3-4 orders of magnitude higher than the reported values of the light-sensitive Gq-coupled GPCRs and even 2-3 orders higher than those of the commonly used optogenetic tool Channelrhodopsin-2 (ChR2)(Lin, 2011; Zhang et al., 2006) (table 8).
The performance of cOpn5 to that of opto-a1AR, a chimera GPCR engineered by mixing rhodopsin with Gq-coupled adrenergic receptor is compared. […] The performance of cOpn5 to that of opn4, a natural opsin which was reported as a tool for Gq signaling activating is also compared. […] Therefore, compared with existing opsin-based tools (opto-a1AR and opn4), cOpn5 is much more light-sensitive (˜3 orders more sensitive), requires much shorter time exposure (10 ms vs. 60 s), and produces stronger responses. […]
Experiments description: the following table 9 is a partial list of cOpn5 orthologs from vertebrata tested in the present invention. Whole genes of all reported opsin5 orthologs from vertebrata (the vertebrates subphylum, including rotundia, cartilaginous fishes, bony fishes, Amphibia, reptila, ornitha and mammals) are synthetized, and expressed in HEK 293T cells. Calcium imaging with or without 470 nm blue light stimulation is performed to test the sensitivity of the opsin 5 orthologs in response to light. The time course of light-induced calcium signal reveal the activated degree of Gq signaling pathway and the sensitivity of these orthologs.

[4] = system: Gq signaling in HEK 293T cells; experiment: IP1 accumulation in Opn5-expressing HEK 293T cells; type: cell-based; settings: 100 μW/mm2, 470 nm; for light-induced increase in the level of inositol phosphate (IP1): continuous light 3 min; for effect on light-evoked IP1 accumulation in cOpn5-expressing cells: YM-254890 treatment, 3 min
Description: as §1
f, YM suppressed the IP1 accumulation evoked by continuous light stimulation (3 min; 100 μW/mm^2; 470 nm) in cOpn5-expressing HEK 293T cells (Left). ***P<0.0001, *P=0.0128; Tukey's multiple comparisons test.

Gi signaling = experiment: cAMP levels in Opn5-expressing HEK 293T cells after photostimulation; type: cell-based; settings: with retinal (10 μM retinal preincubation)
Description: as §1
f, Light has no effect on cAMP levels (10 μM forskolin preincubation) in cOpn5-expressing HEK 293T cells without additional retinal in the medium (left panel).

[5] = system: astrocytes within the mouse S1 cortex; experiment: In vivo two-photon imaging (920 nm) of ATP release (GRABATP sensor) following astrocyte activation; settings: eight hours after intraperitoneal LPS
in vivo astrocytes = settings: cited from earlier work
HEK293-TRPC3 cells = settings: cited from earlier work

Molecule: Chicken Opn5 (opsin 5, neuropsin) (receptor)
- light-induced Ca^2+ signal (Calbryte 630 AM) in HEK 293T cells (Gq proteins [1]): 3 ΔF/F

Molecule: opto-a1AR (receptor)
- light-induced Ca^2+ signal in HEK 293T cells (Gq proteins [2]): 0.5 ΔF/F

Molecule: human OPN4 (melanopsin) (from UniProt Q9UHM6) (receptor)
- light-induced Ca^2+ signal in HEK 293T cells (Gq proteins [2]): 1 ΔF/F

Molecule: hOPN5: Human (Homo sapiens) Opn5 ortholog, GenBank AY377391.1 [reference compound]
- light-induced increase in Ca2+ signal [3]: no light effect
- light-induced increase in the level of inositol phosphate (IP1) ([4]; listed as human OPN5): not
- light-induced increase in the level of inositol phosphate (IP1) ([4]; listed as human Opn5): no significant difference
- effect of blue light illumination on cAMP levels (Gi signaling): effectively reduces cAMP levels

Molecule: C=C1C(=O)NC(C)C(=O)N(C)C(C)C(=O)NC(C(OC(=O)C(NC(C)=O)C(O)C(C)C)C(C)C)C(=O)N(C)C(C(C)OC)C(=O)OC(C)C(NC(C)=O)C(=O)OC(Cc2ccccc2)C(=O)N1C (centres unmarked) [YM-254890, reference compound] (Ac-T[PhLac][NMeDha]A[NMeA][X1][NMeT](Me); ester 1-C; configuration not given here)
- effect on cOpn5-mediated, light-induced Ca2+ signals ([3]; YM-254890 10 nM preincubation, cOpn5-expressing HEK 293T cells): reversibly abolishes; also recorded: reversibly blocked
- effect on turtle Opn5-mediated, light-induced Ca2+ signals ([3]; YM-254890 10 nM, turtle Opn5-expressing HEK 293T cells): reversibly blocked
- effect on light-evoked IP1 accumulation in cOpn5-expressing cells [4]: reduced
- effect on light-evoked IP1 accumulation in cOpn5-expressing cells ([4]; listed as YM): suppressed

Molecule: Turtle Opn5 (opsin 5) (receptor)
- light-induced Ca^2+ signal (Calbryte 630 AM) in HEK 293T cells (Gq proteins [1]): 3 ΔF/F

Molecule: lipopolysaccharide [LPS]
- increase of ATP flash events over basal condition [5]: ~6 fold
- ATP flash frequency ([5]; mice expressing GRABATP alone): ~2 flashes per min

B1: human melanopsin: a natural opsin (melanopsin, Opn4) reported as a tool for Gq signaling activating (protein)
chain: MNPPSGPRVPPSPTQEPSCMATPAPPSWWDSSQSSISSLGRLPSISPTAPGTWAAAWVPLPTVDVPDHAHYTLGTVILLVGLTGMLGNLTVIYTFCRSRSLRTPANMFIINLAVSDFLMSFTQAPVFFTSSLYKQWLFGETGCEFYAFCGALFGISSMITLTAIALDRYLVITRPLATFGVASKRRAAFVLLGVWLYALAWSLPPFFGWSAYVPEGLLTSCSWDYMSFTPAVRAYTMLLCCFVFFLPLLIIIYCYIFIFRAIRETGRALQTFGACKGNGESLWQRQRLQSECKMAKIMLLVILLFVLSWAPYSAVALVAFAGYAHVLTPYMSSVPAVIAKASAIHNPIIYAITHPKYRVAIAQHLPCLGVLLGVSRRHSRPYPSYRSTHRSTLTSHTSNLSWISIRRRQESLGSESEVGWTHMEAAAVWGAAQQANGRSLYGQGLEDLEAKAPPRPQGHEAETPGKTKGLIPSQDPRM
- effect of light on Ca2+ signals without ATR ([3]; OPN4-expressing cells, 25 s light, without ATR): lack of effect
- Light Sensitivity ([3]; Table 8, HEK 293T): 40 mW/mm^2
- Response amplitude: Ca2+ response amplitude ([3]; Table 8, HEK 293T, light as in the row's sensitivity and duration columns): ~0.646 (ΔF/F)
- Ca2+ signal increase ([3]; opn4-expressing cells, 25 s, 40 mW/mm2, additional retinal): ~1 ΔF/F
- Light Sensitivity (in vivo astrocytes): 7 mW/mm^2
- Response amplitude: Ca2+ event frequence (in vivo astrocytes): ~2 (ΔF/F)
- change in Ca2+ amplitude (in vivo astrocytes): no significant

B2: mOpn5: Mouse (Mus musculus) Opn5 ortholog, GenBank NM_181753.4 (protein)
chain: MALNHTALPQDERLPHYLRDEDPFASKLSWEADLVAGFYLTIIGILSTFGNGYVLYMSSRRKKKLRPAEIMTINLAVCDLGISVVGKPFTIISCFCHRWVFGWFGCRWYGWAGFFFGCGSLITMTAVSLDRYLKICYLSYGVWLKRKHAYICLAVIWAYASFWTTMPLVGLGDYAPEPFGTSCTLDWWLAQASGGGQVFILSILFFCLLLPTAVIVFSYAKIIAKVKSSSKEVAHFDSRIHSSHVLEVKLTKVAMLICAGFLIAWIPYAVVSVWSAFGRPDSIPIQLSVVPTLLAKSAAMYNPIIYQVIDYRFACCQAGGLRGTKKKSLEDFRLHTVTAVRKSSAVLEIHPESSSRFTSAHVMDGESHSNDGDCGKK
- light-induced increase in Ca2+ signal [3]: no light effect
- effect of blue light illumination on cAMP levels (Gi signaling): effectively reduces cAMP levels

B3: tOpn5: Turtle (Chelonia mydas) Opn5 ortholog, SEQ ID NO:2, GenBank XM_007068312.4 (protein)
chain: MASNHSTSPQDDHLPHYLQDEDPFASKLSREADIVAGFYLTIIGVLSTFGNGYVLFMSLKRKKKLKPAEIMTVNLAMCDLGISVVGKPFSIISFFSHRWVFGWLGCRWYGWAGFFFGCGSLITLTAVSLDRYLKICHLTYGTWLKRHHAFICLAIIWAYATFWATVPFAGLGNYAPEPFGTSCTLDWWLAQGSVAGQAFILNILFFCLLLPTAVIVFSYVKIIAKVKSSAKEVAHYDTRIQNSHVLEIKLTKVAMLICAGFLIAWIPYAVVSVWSAFGQPDSVPIQVSVIPTLLAKSAAMYNPIIYQVIDCKFSCCRSLQKKSSLKKSRLYTISGNREPTEMNETHLEL
modifications: Chelonia mydas
- light-induced increase in Ca2+ signal [3]: ~3 ΔF/F

B4: mouse melanopsin (Opn4): mouse melanopsin, literature optogenetic tool in Table 8 (protein, UniProt Q9QXZ9 1-521, looked up)
Melanopsin: MDSPSGPRVLSSLTQDPSFTTSPALQGIWNGTQNVSVRAQLLSVSPTTSAHQAAAWVPFPTVDVPDHAHYTLGTVILLVGLTGMLGNLTVIYTFCRNRGLRTPANMFIINLAVSDFLMSVTQAPVFFASSLYKKWLFGETGCEFYAFCGAVFGITSMITLTAIAMDRYLVITRPLATIGRGSKRRTALVLLGVWLYALAWSLPPFFGWSAYVPEGLLTSCSWDYMTFTPQVRAYTMLLFCFVFFLPLLIIIFCYIFIFRAIRETGRACEGCGESPLRQRRQWQRLQSEWKMAKVALIVILLFVLSWAPYSTVALVAFAGYSHILTPYMSSVPAVIAKASAIHNPIIYAITHPKYRVAIAQHLPCLGVLLGVSGQRSHPSLSYRSTHRSTLSSQSSDLSWISGRKRQESLGSESEVGWTDTETTAAWGAAQQASGQSFCSQNLEDGELKASSSPQVQRSKTPKVPGPSTCRPMKGQGARPSSLRGDQKGRLAVCTGLSECPHPHTSQFPLAFLEDDVTLRHL
- Light Sensitivity (HEK293-TRPC3 cells; (500 nm)): 1e+15 photons s^−1 cm^−2
- Response amplitude: Ca2+ response ampitude (HEK293-TRPC3 cells): ~0.1 (ΔF/F)
